In patent publication US20030143232:

How the values were obtained:
[1] = biological target: recombinant survivin(T34A) (UniProt O15392)
[2] = biological target: recombinant wild type survivin (unphosphorylated) (UniProt O15392)
Sequence of recombinant wild type survivin (unphosphorylated) (O15392 whole entry, looked up): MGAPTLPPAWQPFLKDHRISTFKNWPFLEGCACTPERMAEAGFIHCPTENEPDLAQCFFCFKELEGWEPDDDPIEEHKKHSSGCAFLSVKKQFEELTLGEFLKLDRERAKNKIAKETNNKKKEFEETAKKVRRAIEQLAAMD

Sequence of recombinant survivin(T34A) (O15392 whole entry T34A): as the sequence (O15392 whole entry, looked up) above, with T34A counted along it

Q: Which “in vitro kinase assay, 32P autoradiography” value (“in vitro kinase assay” for short) [1] does the source give for “baculovirus-expressed human Cdk2-cyclin E kinase complex” here?
A: The value was “baculovirus-expressed Cdk2-cyclin E did not phosphorylate wild type survivin or survivin(T34A)”.

Q: And the “in vitro kinase assay” value [2]?
A: Its value is “baculovirus-expressed Cdk2-cyclin E did not phosphorylate wild type survivin or survivin(T34A)”.

Q: For “baculovirus-expressed human p34^cdc2-cyclin B1 kinase complex”, which “in vitro kinase assay” value [1] is on record?
A: The value was “substitution of Thr^34→Ala, i.e. survivin(T34A), abolished phosphorylation by p34^cdc2-cyclin B1”.

Q: What about the “in vitro kinase assay” value [2] of the same substance?
A: Its value is “baculovirus-expressed p34^cdc2-cyclin B1 readily phosphorylated recombinant wild type survivin”.
